# Reference: patent publication US20090036365A1 (DYAX, published 2009)
# Experiments:
# human plasmin [1] = molecular target: T1, human plasmin (human, UniProt P00747 97-810, limits assumed); assay: inhibition of plasmin hydrolysis of a fluorogenic substrate, tight-binding fit; measured Ki used as KD
# T1 construct: also called plasmin-beads; plasmin-agarose beads
# human plasmin [2] = molecular target: T1, human plasmin; assay: binding of clonally pure display phage to plasmin relative to BPTI display phage
# Kallikrein = assay: display phage binding to immobilised protease
# Chain of Kallikrein (P03952 20-390, chain 1 of 2): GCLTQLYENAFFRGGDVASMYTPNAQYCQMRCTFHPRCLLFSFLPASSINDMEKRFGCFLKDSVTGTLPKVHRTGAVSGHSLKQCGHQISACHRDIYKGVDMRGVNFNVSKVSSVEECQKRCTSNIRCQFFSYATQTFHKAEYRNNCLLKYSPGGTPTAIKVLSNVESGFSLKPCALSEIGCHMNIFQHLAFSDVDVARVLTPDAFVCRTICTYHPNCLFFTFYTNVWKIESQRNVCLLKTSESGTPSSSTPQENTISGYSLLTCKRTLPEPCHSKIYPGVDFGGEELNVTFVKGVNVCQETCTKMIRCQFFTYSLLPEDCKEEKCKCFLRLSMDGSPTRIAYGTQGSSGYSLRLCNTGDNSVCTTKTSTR
# Chain of Kallikrein (P03952 391-638, chain 2 of 2): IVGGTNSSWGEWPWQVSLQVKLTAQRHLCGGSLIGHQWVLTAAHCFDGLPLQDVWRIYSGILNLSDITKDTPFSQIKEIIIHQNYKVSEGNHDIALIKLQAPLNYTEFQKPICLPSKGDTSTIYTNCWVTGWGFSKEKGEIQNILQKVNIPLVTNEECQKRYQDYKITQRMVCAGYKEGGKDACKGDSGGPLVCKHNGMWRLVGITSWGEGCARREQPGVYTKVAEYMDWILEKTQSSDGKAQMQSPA
# human plasmin [3] = molecular target: T1, human plasmin; assay: display phage binding to immobilised protease
# Thrombin = assay: display phage binding to immobilised protease
# Trypsin [4] = molecular target: T2, Trypsin; assay: display phage binding to immobilised protease
# T2 construct: also called trypsin-agarose beads
# T2 sequence (P00760 24-246): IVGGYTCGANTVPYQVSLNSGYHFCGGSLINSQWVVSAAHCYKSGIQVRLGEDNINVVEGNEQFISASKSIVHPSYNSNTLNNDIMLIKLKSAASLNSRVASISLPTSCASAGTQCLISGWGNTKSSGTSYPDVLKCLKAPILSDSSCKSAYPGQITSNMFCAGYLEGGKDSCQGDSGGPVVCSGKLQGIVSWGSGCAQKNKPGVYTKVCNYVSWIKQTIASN
# Trypsin [5] = molecular target: T2, Trypsin; assay: display phage binding to immobilised trypsin, 2 washes
# human plasmin [6] = molecular target: T1, human plasmin; assay: display phage binding to protease beads
# human plasmin [7] = molecular target: T1, human plasmin; assay: preliminary plasmin inhibition test; measured Ki used as KD
# human plasmin [8] = molecular target: T1, human plasmin; assay: inhibition of plasmin by soluble protein; measured Ki used as KD
# human plasmin [9] = molecular target: T1, human plasmin; assay: as above; remark: listed apart in the source
# T1 sequence (P00747 97-810 limits assumed): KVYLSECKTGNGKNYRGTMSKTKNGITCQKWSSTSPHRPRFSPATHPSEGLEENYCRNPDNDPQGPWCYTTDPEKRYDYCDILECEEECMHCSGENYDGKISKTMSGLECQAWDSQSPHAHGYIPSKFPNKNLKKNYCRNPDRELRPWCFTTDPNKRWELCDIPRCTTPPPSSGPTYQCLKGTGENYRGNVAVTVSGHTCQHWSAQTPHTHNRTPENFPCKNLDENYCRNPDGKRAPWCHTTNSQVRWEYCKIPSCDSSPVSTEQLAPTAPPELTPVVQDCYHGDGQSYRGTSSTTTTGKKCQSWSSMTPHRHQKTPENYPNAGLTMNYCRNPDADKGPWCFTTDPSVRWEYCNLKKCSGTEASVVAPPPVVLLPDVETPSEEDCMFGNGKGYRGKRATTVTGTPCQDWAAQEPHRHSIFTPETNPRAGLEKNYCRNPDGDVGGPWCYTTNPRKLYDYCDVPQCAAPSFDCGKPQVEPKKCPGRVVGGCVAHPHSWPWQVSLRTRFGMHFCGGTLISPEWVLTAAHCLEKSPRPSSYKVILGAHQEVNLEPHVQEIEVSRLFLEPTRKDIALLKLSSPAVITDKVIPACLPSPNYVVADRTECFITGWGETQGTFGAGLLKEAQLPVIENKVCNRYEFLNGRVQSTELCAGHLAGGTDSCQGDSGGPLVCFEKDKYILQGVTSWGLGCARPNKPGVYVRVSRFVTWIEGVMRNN
binder,measurement,setting,value
"QS4, yeast-expressed soluble protein (designed binder, Expressed in S. cerevisiae from a mat alpha fusion, purified on trypsin-agarose; also called QS4 variant) EAAEMHSFCAFKADDGPCKARFERFFFNIFTRQCEQFYYGGCDGNQNRFESLEECKKMCTRD",Kd,human plasmin [1],2 nM
"SPI08 (designed binder, also called isolate 08) MHSFCAFKADGGPCRARFERFFFNIFTRQCEEFIYGGCEGNQNRFESLEECKKMCTRD",Phage Binding (relative to BPTI phage),human plasmin [2],2.6 fold of BPTI phage
"QS4 displayed on gIIIp of M13 (designed binder, also called phage that display the LACI-K1 derivative QS4) MHSFCAFKADDGPCKARFERFFFNIFTRQCEQFYYGGCDGNQNRFESLEECKKMCTRD",relative binding (LACI-K1 phage = unit),Kallikrein,0.9 fold of LACI-K1 phage
same,relative binding (LACI-K1 phage = unit),human plasmin [3],52 fold of LACI-K1 phage
same,relative binding (LACI-K1 phage = unit),Thrombin,0.7 fold of LACI-K1 phage
same,relative binding (LACI-K1 phage = unit),Trypsin [4],4.5 fold of LACI-K1 phage
same,relative binding (LACI-K1 phage = unit),Trypsin [5],0.5 fold of LACI-K1 phage
same,fold binding to plasmin beads over other protease targets,human plasmin [6],≥ 50 fold
SPI43 (designed binder) MHSFCAFKAETGPCRGKFDRWFFNIFTRQCESFHYGGCKGNQNRFESLEECKKMCTRD,Kd,human plasmin [7],> 4 nM
"SPI23 (designed binder, also called isolate 23) MHSFCAFKAEGGPCRAKFQRWFFNIFTRQCEEFIYGGCEGNQNRFESLEECKKMCTRD",Kd,human plasmin [7],~0.5 nM
same,Phage Binding (relative to BPTI phage),human plasmin [2],1.25 fold of BPTI phage
"SPI03 (designed binder, 108 for the printed residues 10-21) MHSFCAFKADSGPCKARFDRWFFNIFTRQCEEFIYGGCEGNQNRFESLEECKKMCTRD",Phage Binding (relative to BPTI phage),human plasmin [2],0.48 fold of BPTI phage
"SPI15 (designed binder, 41 for the whole domain; 90 for the printed residues 10-21; also called SP115; isolate 15) MHSFCAFKAESGPCRARFDRWFFNIFTRQCEEFIYGGCEGNQNRFESLEECKKMCTRD",Phage Binding (relative to BPTI phage),human plasmin [2],2.5 fold of BPTI phage
SPI47 (designed binder) MHSFCAFKADAGPCRAKFERFFFNIFTRQCEEFIYGGCEGNQNRFESLEECKKMCTRD,Kd,human plasmin [7],~0.8 nM
SPI54 (designed binder) MHSFCAFKADSGPCRARFDRWFFNIFTRQCTRFPYGGCGGNQNRFESLEECKKMCTRD,Kd,human plasmin [7],> 4 nM
SPI51 (designed binder) MHSFCAFKADAGPCRAKFERFFFNIFTRQCTAFFYGGCGGNQNRFESLEECKKMCTRD,Kd,human plasmin [7],~0.5 nM
"SPI11 (Selected Plasmin Inhibitor#11) (designed binder, also called isolate 11) MHSFCAFKAETGPCRARFDRWFFNIFTRQCEEFIYGGCEGNQNRFESLEECKKMCTRD",Kd,human plasmin [8],0.088 nM
same,Kd,human plasmin [9],0.088 nM
same,Phage Binding (relative to BPTI phage),human plasmin [2],3.2 fold of BPTI phage
"SPI02 (designed binder, 102 for the printed residues 10-21) MHSFCAFKADSGPCRGRFERFFFNIFTRQCEEFIYGGCEGNQNRFESLEECKKMCTRD",Phage Binding (relative to BPTI phage),human plasmin [2],0.83 fold of BPTI phage
"SPI22 (designed binder, also called isolate 22) MHSFCAFKADGGPCKGKFPRFFFNIFTRQCEEFIYGGCEGNQNRFESLEECKKMCTRD",Kd,human plasmin [7],> 2 nM
same,Phage Binding (relative to BPTI phage),human plasmin [2],2 fold of BPTI phage
"SPI21 (designed binder, 116 for the printed residues 10-21) MHSFCAFKADSGACKGKFERWFFNIFTRQCEEFIYGGCEGNQNRFESLEECKKMCTRD",Phage Binding (relative to BPTI phage),human plasmin [2],0.38 fold of BPTI phage
"SPI01 (designed binder, 112 for the printed residues 10-21) MHSFCAFKADSGACRAMFHRFFFNIFTRQCEEFIYGGCEGNQNRFESLEECKKMCTRD",Phage Binding (relative to BPTI phage),human plasmin [2],0.25 fold of BPTI phage
"SPI17 (designed binder, 104 for the printed residues 10-21) MHSFCAFKAEVGPCRARIQRFFFNIFTRQCEEFIYGGCEGNQNRFESLEECKKMCTRD",Phage Binding (relative to BPTI phage),human plasmin [2],0.09 fold of BPTI phage
"SPI16 (designed binder, 110 for the printed residues 10-21) MHSFCAFKAEVGACKGRFHRWFFNIFTRQCEEFIYGGCEGNQNRFESLEECKKMCTRD",Phage Binding (relative to BPTI phage),human plasmin [2],0.22 fold of BPTI phage
"SPI05 (designed binder, 105 for the printed residues 10-21) MHSFCAFKAESGPCRAKFARFFFNIFTRQCEEFIYGGCEGNQNRFESLEECKKMCTRD",Phage Binding (relative to BPTI phage),human plasmin [2],0.64 fold of BPTI phage
